{"source": "patent US20100137190A1", "about": "“LIQUID COMPOSITION FOR EXTERNAL APPLICATION AND PREPARATION FOR EXTERNAL APPLICATION FOR TREATMENT OF SKIN ULCER” (priority 2006, published 2010)", "system": "ulcer model of delayed skin wound healing (60 sec ethanol exposure model)", "assay": "Healing effect of GM-CSF external agent on intractable skin ulcer", "type": "in vivo", "method": "By using a C57BL/6 mouse, an ulcer model of delayed skin wound healing as an intractable skin ulcer model was produced. Specifically, full thickness dorsal skin tissue with a size of 2×1.5 cm of a C57BL/6 mouse was excised, whereby the fascia was exposed with almost no bleeding. Then, the wound area was completely covered with cotton which had been sufficiently soaked in 70% ethanol, whereby ethanol exposure for 30 sec, 60 sec, 300 sec and 600 sec was carried out. After that, the wound area was air-dried, and the area of the wound area was measured (day 0). 7 days after completion of the experiment, the area of the wound area was measured, which was compared with the area of the wound area on day 0, and a change in the area of the wound area was examined. As a result, the shrinkage of the wound area was reduced as the time of ethanol exposure was increased, and the shrinkage hardly occurred by the 300 sec exposure. Incidentally, the mouse subjected to 600 sec ethanol exposure died at 3 days after the experiment due to deterioration of systemic symptoms. In the case where the time of ethanol exposure was short such as 30 sec exposure or 60 sec exposure, the healing was delayed because the tissue around the wound area directly received degenerative damage due to ethanol, however, granulation tissue was formed in the wound area in one week after the ethanol exposure, and the wound area was covered with epidermal tissue in about 3 weeks and the healing was completed. The 60 sec exposure was to be a factor of delaying the shrinkage of the wound area, but there was no systemic symptom and its effect was sufficient, therefore, this mouse was adopted as an ulcer model of delayed skin wound healing.\nAs GM-CSF, a mouse-derived recombinant (R&D System) was used. A solution obtained by dissolving this GM-CSF in an atelocollagen solution at a concentration of 20 μg/100 μL was applied to an affected area of the above-mentioned ulcer model of delayed skin wound healing (60 sec ethanol exposure model) and coagulated, and evaluation was performed in the healing process for 7 days. Further, a group in which only an atelocollagen solution (a 3 mg/mL hydrochloric acid solution) was applied to the affected area and coagulated was used as a control. […] When the shrinkage of the wound area after 7 days was examined, the relative area of the wound area in the GM-CSF administration group was larger by about 15% than that of the control group, and the shrinking action of natural healing of a wound area was inhibited, and the wound area was exacerbated.", "note": "“Also recorded” adds a separate entry of the source."}
{"molecule": "GM-CSF: granulocyte macrophage colony stimulating factor, mouse-derived recombinant (R&D System), dissolved in atelocollagen solution (protein, UniProt P01587 18-141, looked up) Granulocyte-macrophage …: APTRSPITVTRPWKHVEAIKEALNLLDDMPVTLNEEVEVVSNEFSFKKLTCVQTRLKIFEQGLRGNFTKLKGALNMTASYYQTYCPPTPETDCETQVTTYADFIDSLKTFLTDIPFECKKPGQK", "values": [{"measurement": "histology / symptoms of the wound area (edema, swelling)", "setting": "20 μg/100 μL in atelocollagen solution, 7-day period", "result": "edema was noted"}, {"measurement": "thickness of granulation tissue compared with control group", "setting": "20 μg/100 μL in atelocollagen solution, 7 days", "result": "slightly thicker"}, {"measurement": "relative area of the wound area, larger than that of the control group", "setting": "20 μg/100 μL in atelocollagen solution, after 7 days, control atelocollagen only", "result": "about 15%"}, {"measurement": "wound healing effect on intractable skin ulcer (overall finding)", "setting": "external application", "result": "does not have an effect on intractable skin ulcers; also recorded: does not have a wound healing accelerating effect"}]}
